T1: human IgA (Sigma, Cat. No. I2636) (human)
T1 chain: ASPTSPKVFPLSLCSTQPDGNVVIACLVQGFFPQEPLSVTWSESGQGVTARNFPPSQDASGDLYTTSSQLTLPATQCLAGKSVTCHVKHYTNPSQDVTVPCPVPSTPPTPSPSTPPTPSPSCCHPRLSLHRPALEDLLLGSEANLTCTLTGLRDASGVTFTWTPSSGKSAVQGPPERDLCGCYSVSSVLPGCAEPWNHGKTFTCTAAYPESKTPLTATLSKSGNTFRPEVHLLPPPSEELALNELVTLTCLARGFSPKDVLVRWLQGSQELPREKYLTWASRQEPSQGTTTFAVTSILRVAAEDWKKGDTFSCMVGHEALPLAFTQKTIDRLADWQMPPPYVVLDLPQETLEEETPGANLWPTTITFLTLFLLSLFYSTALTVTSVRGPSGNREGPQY


Columns and labels:
[1] = target: T2, free IgE in human serum (healthy volunteers, in-house donors) (human, UniProt P01854-1 1-428); assay: capture ELISA, Test 2, human serum
T2 construct: Kept apart from the bought myeloma IgE because it is native serum IgE of single donors; also called serum IgE
Method: (§1) Wells were washed once with 150 μL/well wash buffer (0.05% Tween-20, Sigma, Cat. No. P7949/TBS) then blocked with 150 μL/well 1% BSA (Sigma, Cat. No. A7030) in TBS for 2 hours at room temperature. Wells were washed twice with 150 μL wash buffer. 50 μL human (in-house donors) or cynomolgus serum (Harlan Sera-Lab Ltd, Loughborough) was added from neat to at least 1:16 dilution in 1% BSA/0.05% Tween-20/TBS diluent buffer. […] Wells were incubated for 2 hours at 25° C. before washing (3×150 μL wash buffer). […] Wells were incubated for 1 hour at 25° C. then washed (3×150 μL wash buffer). Streptavidin-HRP (Amersham Bioscience, Cat. No. RPN 1231) diluted 1:1000 in diluent buffer was added to all wells and incubated for 45 minutes at room temperature. Wells were washed (3×150 […] wash buffer). 50 μL OPD (Dako, Cat. No. S2045) was added to all wells and the color allowed to develop for 10 minutes before stopping the reaction with 50 μl 0.6M H₂SO₄ and the absorbance measured at 490 nm.

[2] = target: T2, free IgE in human serum (healthy …); assay: serum free IgE depletion ELISA; DIN 0461
Method: (§2) The next day ELISA plates were washed 1× with 300 μL/well wash buffer (0.05% Tween-20, Sigma, Cat. No. P7949/TBS) then blocked with 150 μL/well 1% BSA (Sigma, Cat. No. A7030) in TBS for 1 hour at room temperature.

[3] = target: T3, human IgE (Human myeloma, azide free, Serotec, Cat. No. PHP008X2) (human, UniProt P01854 1-546); assay: ELISA on coated immunoglobulin
T3 construct: mature; Bought full length human myeloma IgE; in the BIAcore kinetics Serotec PHP008X2 or Europa Bioproducts CP1035K was used; also called full length human IgE; human immunoglobulin E
Method: (§3) Wells were washed 3× with 150 μL wash buffer (0.05% Tween-20 (Sigma, Cat. No. P7949)/PBS) then blocked with 150 μL/well blocking buffer (2.5% BSA (Sigma, Cat. No. A7030)/PBS) for 2 hours at room temperature. Wells were washed 3× with 150 μL wash buffer/well. […] Antibodies were diluted in diluent buffer (PBS/1% BSA/0.05% Tween-20) and this was added to blank control wells (duplicate wells for each secondary antibody used). Antibodies were incubated for 2 hours at room temperature. Wells were washed 3× with 150 μL wash buffer/well. Binding of control antibodies to immunoglobulin was detected with anti-mouse IgG-HRP conjugate (Sigma, Cat. No. A4416) diluted 1:8000 in diluent buffer. 50 μL/well was added to control antibody and blank wells. Wells were incubated for 1 hour at room temperature, then washed 3× with 150 μL wash buffer/well. 50 μl OPD (Dako, Cat. No. […] Wells were incubated for 1 hour at room temperature then washed 3× with 150 μL wash buffer/well. Streptavidin-HRP (Amersham Bioscience, Cat. No. RPN 1231) diluted 1:2000 in diluent buffer was added to all wells and incubated for 45 minutes at room temperature. Wells were washed (3×150 μL wash buffer).

[4] = target: T4, human IgG3 (Biodesign, Cat. No. A50186H) (human); assay: ELISA on coated immunoglobulin
T4 construct: Bought immunoglobulin coated on the plate
Method: as §3

[5] = target: T5, human IgG1 (Biodesign, Cat. No. A50183H) (human); assay: ELISA on coated immunoglobulin
T5 construct: Bought immunoglobulin coated on the plate
Method: as §3

[6] = target: T1, human IgA (Sigma, Cat. No. I2636); assay: ELISA on coated immunoglobulin
Method: as §3

[7] = target: T2, free IgE in human serum (healthy …); assay: serum free IgE depletion ELISA; DIN 0591
Method: as §2

[8] = target: T2, free IgE in human serum (healthy …); assay: serum free IgE depletion ELISA; DIN 0321 experiment 2
Method: as §2

[9] = target: T3, human IgE (Human myeloma, azide free, …); assay: BIAcore 3000, antibody immobilised, full length human IgE injected
Method: An immobilization binding response of 50-600 RU was obtained using CM5 sensor chips (BIAcore™) and 10 mM sodium acetate, pH 5.0 as immobilization buffer. The reference flow cell was activated (with EDC-NHS) and blocked (with ethanolamine) but no protein was immobilized. […] A regeneration step was included after the dissociation phase; the conditions used for the various antibodies are given in Table 17 below.
All sensorgrams were fitted locally using BIA evaluation software 4.1 (BIAcore™) and Scrubber software version 2.0 (BioLogic Software).

[10] = target: T6, cynomolgus monkey IgE (in cynomolgus serum, Harlan Sera-Lab Ltd) (cynomolgus monkey); assay: capture ELISA, Test 2, Cyno 6
T6 construct: Serum was the source of IgE; eight serum samples; also called cynomolgus IgE; Cyno 1 to Cyno 8 serum samples
Method: as §1

[11] = target: T2, free IgE in human serum (healthy …); assay: serum free IgE depletion ELISA; DIN 0011 experiment 2
Method: as §2

[12] = target: T3, human IgE (Human myeloma, azide free, …); assay: cell-based or functional assay

T2 sequence (P01854 other isoform, or with tags, fused parts or gaps): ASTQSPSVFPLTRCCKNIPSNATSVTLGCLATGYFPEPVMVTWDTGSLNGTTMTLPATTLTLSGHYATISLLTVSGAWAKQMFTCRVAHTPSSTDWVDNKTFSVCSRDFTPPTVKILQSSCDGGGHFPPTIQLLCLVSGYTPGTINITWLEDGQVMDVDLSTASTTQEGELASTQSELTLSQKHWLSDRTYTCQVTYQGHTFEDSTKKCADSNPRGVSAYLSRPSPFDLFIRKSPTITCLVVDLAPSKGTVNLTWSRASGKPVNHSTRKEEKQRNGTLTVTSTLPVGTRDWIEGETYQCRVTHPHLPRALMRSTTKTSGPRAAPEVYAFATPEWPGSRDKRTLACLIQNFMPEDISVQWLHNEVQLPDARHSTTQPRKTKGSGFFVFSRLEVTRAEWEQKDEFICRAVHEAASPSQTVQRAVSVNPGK
T3 sequence (P01854 whole entry): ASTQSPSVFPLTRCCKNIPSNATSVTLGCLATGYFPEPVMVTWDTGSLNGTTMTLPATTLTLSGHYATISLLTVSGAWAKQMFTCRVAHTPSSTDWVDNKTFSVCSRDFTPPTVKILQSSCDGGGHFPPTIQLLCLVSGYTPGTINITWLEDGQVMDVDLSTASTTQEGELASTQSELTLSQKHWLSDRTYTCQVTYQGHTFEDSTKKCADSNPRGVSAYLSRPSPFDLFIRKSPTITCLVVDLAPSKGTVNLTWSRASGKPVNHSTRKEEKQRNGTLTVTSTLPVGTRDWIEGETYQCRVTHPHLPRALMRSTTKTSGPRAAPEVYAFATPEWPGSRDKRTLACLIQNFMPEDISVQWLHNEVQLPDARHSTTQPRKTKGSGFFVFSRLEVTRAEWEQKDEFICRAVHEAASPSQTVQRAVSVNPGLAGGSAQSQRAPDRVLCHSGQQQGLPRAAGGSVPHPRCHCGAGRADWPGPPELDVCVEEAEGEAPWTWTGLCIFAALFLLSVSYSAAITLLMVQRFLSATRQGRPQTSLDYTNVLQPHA

Binder	IgE concentration detected [1] [ng/mL]	IC25 ng/mL [2] [µg/mL]	A290 nm [3] [A290 nm]	A290 nm [4] [A290 nm]	A290 nm [5] [A290 nm]	A290 nm [6] [A290 nm]	IC25 ng/mL [7] [µg/mL]	IC25 ng/mL [8] [µg/mL]	Kd [9] [nM]	koff [9] [s⁻¹]	kon [9] [M⁻¹ s⁻¹]	IgE concentration detected [10] [ng/mL]	IC25 ng/mL [11] [µg/mL]	IC50, inhibition of IgE-mediated degranulation (histamine release) of RBL-2H3 (FcεR1) cells; Batch 1 [12] [µg/mL]	IC50, inhibition of IgE-mediated degranulation (histamine release) of RBL-2H3 (FcεR1) cells; Batch 2 [12] [µg/mL]	IC50, inhibition of IgE-mediated degranulation (histamine release) of RBL-2H3 (FcεR1) cells [12] [µg/mL]
5.948.1 (recombinant) (antibody, human IgG2, kappa, V domains shown, Human IgG2 kappa; leader omitted; Two batches were tested in some assays; also called recombinant 5.948.1; 5.948.1 - Batch 1 (762.8 µg/mL)) VH: QVQLVQSGAEVKKPGASVKVSCKASGYTFTSYDINWVRQATGQGLEWMGWMDPNSGNTGYAQKFQGRVTMTRNTSISTAYMELSSLRSEDTAVYYCARGHYDSDGYYSFSGMDVWGQGTTVTVSS VL: not shown	431	1.47	2.57	0.04	0.07	0.04	2.35	7.9	1.32	3.11e-05	23600	62	6.34	0.36	0.123	–
5.948.1 Hc-H100Y (antibody, human IgG2, kappa, V domains shown, Human IgG2 kappa; leader omitted; also called 5.948.1 (H100Y); 5.948.1 H100Y) VH: QVQLVQSGAEVKKPGASVKVSCKASGYTFTSYDINWVRQATGQGLEWMGWMDPNSGNTGYAQKFQGRVTMTRNTSISTAYMELSSLRSEDTAVYYCARGYYDSDGYYSFSGMDVWGQGTTVTVSS VL: not shown	408	0.34	1.05	0.06	0.06	0.05	0.55	2.55	0.159	2.42e-05	151000	39	2.96	–	–	0.0121

From patent publication US20090117124A1 (Pfizer, published 2009)
